According to paper PMC9048828, “The Acetyltransferase RibT From Bacillus subtilis Affects in vivo Dynamics of the Multimeric Heavy Riboflavin Synthase Complex” (Frontiers in Microbiology, 2022):

B1: Strep-RibH (enzyme, Bacillus subtilis, UniProt P11998 1-154, looked up)
chain: MNIIQGNLVGTGLKIGIVVGRFNDFITSKLLSGAEDALLRHGVDTNDIDVAWVPGAFEIPFAAKKMAETKKYDAIITLGTVIRGATTHYDYVCNEAAKGIAQAANTTGVPVIFGIVTTENIEQAIERAGTKAGNKGVDCAVSAIEMANLNRSFE
notes: RibH, lumazine synthase of Bacillus subtilis; printed mass of Strep-RibH 17.9 kDa; Cloning and purification are described in the Supplementary Data; The printed mass fits the whole protein with its tag (surmised); also called wt-like Strep-RibH; source: E. coli BL21 (DE3) Star, purified (Strep-Tactin, SEC); also coproduced with His6-RibE; not shown: Strep tag, N-terminal, kept; copies: 60
B2: Strep-RibH^K29E (enzyme, Bacillus subtilis, UniProt P11998 1-154, looked up)
chain: MNIIQGNLVGTGLKIGIVVGRFNDFITSELLSGAEDALLRHGVDTNDIDVAWVPGAFEIPFAAKKMAETKKYDAIITLGTVIRGATTHYDYVCNEAAKGIAQAANTTGVPVIFGIVTTENIEQAIERAGTKAGNKGVDCAVSAIEMANLNRSFE
notes: RibH, lumazine synthase of Bacillus subtilis, with K29E; printed mass 17.9 kDa; Cloning and purification are described in the Supplementary Data; source: E. coli BL21 (DE3) Star, purified (Strep-Tactin, SEC); also coproduced with His6-RibE; not shown: Strep tag, N-terminal, kept; copies: 60
B3: Strep-RibH^K29R (enzyme, Bacillus subtilis, UniProt P11998 1-154, looked up)
chain: MNIIQGNLVGTGLKIGIVVGRFNDFITSRLLSGAEDALLRHGVDTNDIDVAWVPGAFEIPFAAKKMAETKKYDAIITLGTVIRGATTHYDYVCNEAAKGIAQAANTTGVPVIFGIVTTENIEQAIERAGTKAGNKGVDCAVSAIEMANLNRSFE
notes: RibH, lumazine synthase of Bacillus subtilis, with K29R; printed mass 17.9 kDa; Cloning and purification are described in the Supplementary Data; the tag is likely N-terminal as in Strep-RibH (surmised); source: E. coli BL21 (DE3) Star, purified (Strep-Tactin, SEC); also coproduced with His6-RibE; copies: 60

Molecular target: the molecule itself
Test: pull-down + SEC; coproduced in E. coli BL21 Star, purified by Strep-Tactin affinity chromatography followed by SEC; pooled 60-mer peak (~1 MDa) analysed by SDS-PAGE

Stoichiometry N, 60:
B1
B2
B3
